Substrate in the data set: O=P(O)(O)O[C@@H]1[C@@H](OP(=O)(O)O)[C@H](OP(=O)(O)O)[C@H](O)[C@H](OP(=O)(O)O)[C@H]1OP(=O)(O)O
Nature of the data set: Kinase-Glo Max luminescent kinase assay; Michaelis-Menten nonlinear regression. The data set is classed as biochemical, Trametes hirsuta. The conditions noted are these: 300 µM ATP, 5 mM MgCl2, 50 mM NaCl, 50 mM Tris pH 7.5, 28°C.

The record followed here is PMC12421882, “ThIPK1 regulates lignocellulolytic enzyme expression during wood degradation in white-rot fungi” (mBio, 2025).

B1: ThIPK1 (Trametes hirsuta) (protein)
chain: MENDAPIIGDTSPQDWKYISEGGSTIVFSYVGPPHPSFDGTALRLRKGPTPAHEDPEKYEKPSLAPAEPSQEPEASAAGGADDEEPDDPTVVFQRTVIERLVPTAHLPRLQPVRVARAWLAQLAARTEALRPAERRARDAIDLGRRKAVLATDLVGGEGWAVEIKPKWGFLPQPAYLSPETRAIKTRTCRFCMHAQLKKTEGEDVALGYCPLDLYSGDAGRVERALRELWDVWVGSGGAVNNLRVFVQGKMVKPSADPASLAPLTAQLLPPTSTTSPDSEPPAATRPPDTLRDAFIATLLPLLLDTPVLRTLSTLQRTLDALDIEGLAALWARVHPAHALGTGPGPGAADPDIAAWARFVDEHIDRLAQAAEDAKGAGEGEGQGENGSEVPATEDELRYRVAAYLLGASFKDCSLILRMRPHAQGTVTVIDLDVKSADRLGKWAALDREIVDAYRGVSNARRCVDAHYGAVPLP
notes: full-length cDNA in pET28a(+), E. coli BL21(DE3), Ni-NTA
B1: the Km was 31.42 µM.
